The values that follow come from publication PMC13478228 (2026).

Experiment [1] deals with T1, human cytosolic seryl-tRNA synthetase (SerRS), tag-free, purified separately (human, UniProt P49591 1-514). The experiment is described as follows: 80 uM ADPR.
The target of experiment [2] is T1, human cytosolic seryl-tRNA synthetase …. The experiment in a line: 2000 uM ADPR.
Experiment [3] has the same target. The experiment is described as follows: 2000 uM NAD+.

B1: human sirtuin 2 (SIRT2), C-terminal His tag (enzyme)
chain: MAEPDPSHPLETQAGKVQEAQDSDSDSEGGAAGGEADMDFLRNLFSQTLSLGSQKERLLDELTLEGVARYMQSERCRRVICLVGAGISTSAGIPDFRSPSTGLYDNLEKYHLPYPEAIFEISYFKKHPEPFFALAKELYPGQFKPTICHYFMRLLKDKGLLLRCYTQNIDTLERIAGLEQEDLVEAHGTFYTSHCVSASCRHEYPLSWMKEKIFSEVTPKCEDCQSLVKPDIVFFGESLPARFFSCMQSDFLKVDLLLVMGTSLQVQPFASLISKAPLSTPRLLINKEKAGQSDPFLGMIMGLGGGMDFDSKKAYRDVAWLGECDQGCLALAELLGWKKELEDLVRREHASIDAQSGAGVPNPSTSASPKKSPPPAKDEARTTEREKPQ
Regarding B1, the equilibrium dissociation constant (Kd) (in general, the free concentration of one partner at which half of the binding sites on the other are occupied at equilibrium, for simple one-to-one binding) in experiment [1] is 530 nM; in experiment [2], 430 nM; in experiment [3] it was 530 nM.
